From patent US20180118802A1 (published 2018)
Like-named read-outs stand apart in the source and are kept apart here.

T1: LRP2 CR89 V1047D R1088D (human, UniProt P98164 1022-1105)
T1 construct: also called YDWD
T1 sequence: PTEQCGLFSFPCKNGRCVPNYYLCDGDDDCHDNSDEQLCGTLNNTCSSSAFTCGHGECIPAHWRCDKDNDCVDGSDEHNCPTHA

T2: LRP2 CR89 V1047D (human, UniProt P98164 1022-1105)
T2 construct: also called YDWR
T2 sequence: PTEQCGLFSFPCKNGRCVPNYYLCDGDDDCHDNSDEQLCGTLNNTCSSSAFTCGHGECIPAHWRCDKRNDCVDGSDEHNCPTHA

T3: LRP2 CR89 Y1042W (human, UniProt P98164 1022-1105)
T3 construct: also called WVWR
T3 sequence: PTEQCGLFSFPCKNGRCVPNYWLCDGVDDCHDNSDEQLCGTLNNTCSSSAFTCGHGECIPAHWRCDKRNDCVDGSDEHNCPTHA

T4: LRP2 CR89 Y1042W R1088D (human, UniProt P98164 1022-1105)
T4 construct: also called WVWD
T4 sequence: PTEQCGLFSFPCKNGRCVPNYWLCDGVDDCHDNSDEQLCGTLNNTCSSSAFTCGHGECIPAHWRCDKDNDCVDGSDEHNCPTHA

T5: LRP2 CR89 Y1042W V1047D R1088D (human, UniProt P98164 1022-1105)
T5 construct: also called WDWD
T5 sequence: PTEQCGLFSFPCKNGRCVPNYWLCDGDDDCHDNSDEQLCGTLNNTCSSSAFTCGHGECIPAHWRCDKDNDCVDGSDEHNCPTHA

T6: LRP2 CR89 Y1042W V1047D (human, UniProt P98164 1022-1105)
T6 construct: also called WDWR
T6 sequence: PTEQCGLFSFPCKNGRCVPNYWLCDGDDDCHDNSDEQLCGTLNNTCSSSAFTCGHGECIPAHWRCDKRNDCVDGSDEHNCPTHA

B1: RAP d3 (ligand, not shown: small tags and cut ends)
chain: LDRLRRVSHQGYSTEAEFEEPRVIDLWDLAQSANLTDKELEAFREELKHFEAKIEKHNHYQKQLEIAHEKLRHAESVGDGERVSRSREKHALLEGRTKELGYTVKKHLQDLSGRISRAR
notes: also called wild-type RAP d3

Experiments:
[1] = target: T7, LRP1 CR3-5 (human, UniProt Q07954 852-973); assay: solid-phase binding assay, CR protein coated, anti-RAP detection
T7 construct: range 852-973; not shown: N-terminal hexahistidine and S-peptide of pET30(+)a
Excerpt: (§1) Alternatively, the affinity differences between MegaRAP I d3 and MegaRAP1 d3 E270K may have been insufficient to alloW the latter to predominate upon iterative panning. A double revertant, T213S, E270K, had binding behavior that was not distinguishable from MegaRAP1 d3 in our assays. […] The binding behavior of the K251E, E270K double revertant implies a strong dependence of the affinity of MegaRAP1 d3 for LRP2 CR89 on the E251K mutation. […] Therefore, the K256A mutation in MegaRAP1 d3 is a crucial determinant of the ability of this variant to discriminate between the two receptor fragments, exerting its effect by negatively impacting affinity for LRP1 CR3-5 while at the same time improving affinity for LRP2 CR89.

[2] = target: T8, VLDLR CR6-8 (human, UniProt P98155 235-358); assay: as above
T8 construct: range 235-358; not shown: N-terminal hexahistidine and S-peptide of pET30(+)a
Excerpt: as §1

[3] = target: T7, LRP1 CR3-5; assay: as above; remark: listed apart in the source
Method: (§2) Wells were washed with TBSTC and bound ligands detected with polyclonal anti-RAP (BP41/42, 1:1,000, BioMarin). Excess primary antibody was removed and wells washed before incubation with the secondary antibody, HRP-conjugated goat anti rabbit IgG (Bio-Rad). After washing, TMB substrate solutions (Bio-Rad) were added to detect HRP. Color development was stopped with 1N HCl. Absorption at 450 nm was measured with a microplate spectrophotometer (Molecular Devices). Data were plotted and Kd values derived by non-linear regression with the assumption of single-site binding (GraphPad Prism).
(§3) Next, the binding of RAP d3 and MegaRAP1 d3 proteins to LRP1 CR3-5 and LRP2 CR89 was assessed. […] In all cases, 10 mM EGTA prevented binding of both RAP d3 and MegaRAP1 d3 to CR proteins. Since calcium was the only divalent metal ion present in the binding buffer, this observation is consistent with both RAP d3 and MegaRAP1 d3 binding to calcium-loaded CR pairs. […] Therefore, wild-type RAP d3 and MegaRAP1 d3 have inverted binding preferences for these two receptor fragments.

[4] = target: T9, LRP2 CR89 (human, UniProt P98164 1025-1102); assay: as above
T9 construct: domain: CR89; also called YVWR; not shown: N-terminal hexahistidine and S-peptide of pET30(+)a
Method: as §2, §3

[5] = target: T9, LRP2 CR89; assay: as above; remark: listed apart in the source
Method: (§4) Solid phase binding assays—Purified, refolded CR protein (1 μg) was bound to Nunc Maxisorp™ 96-well plates in TBS pH 8 supplemented with 5 mM CaCl₂ (TBSC) overnight at 4° C. Wells were washed with TBSC and then blocked with TBSC containing 2% bovine serum albumin (BSA). RAP ligands were then incubated with the immobilized receptor at a range of concentrations for 2 hours in the above blocking buffer supplemented with 0.05% Tween-20 at room temperature. Control wells contained no added ligand. As an additional control, to determine whether the absence of calcium affected binding, 10 mM EGTA was included in the incubation medium for some samples. Wells were washed with TBSTC and bound ligands detected with polyclonal anti-RAP (BP41/42, 1:1,000, BioMarin). Excess primary antibody was removed and wells washed before incubation with the secondary antibody, HRP-conjugated goat anti rabbit IgG (Bio-Rad). After washing, TMB substrate solutions (Bio-Rad) were added to detect HRP. Color development was stopped with 1N HCl. Absorption at 450 nm was measured with a microplate spectrophotometer (Molecular Devices). Data were plotted and Kd values derived by non-linear regression with the assumption of single-site binding (GraphPad Prism).
(§5) One premise of this work was that amino acids at A, C, A′ and C′ within the calcium-binding loops of a CR pair were key determinants of binding affinity for RAP and would be similarly important for binding of RAP variants. To test this idea, mutant LRP2 CR89 were prepared in which the native, non-canonical residues at these positions were sequentially substituted with the non-native, canonical residues. As defined above, the A, C, A′, C′ string for LRP2 CR89 is YVWR. Mutants included LRP2 CR89 Y1042W (WVWR), LRP2 CR89 V1047D (YDWR), LRP2 CR89 R1088D (YVWD), LRP2 CR89 V1047D R1088D (YDWD), LRP2 CR89 Y1042W V1047D R1088D (WDWD), LRP2 CR89 Y1042W V1047D (WDWR), LRP2 CR89 Y1042W R1088D (WVWD). Binding to both RAP d3 and MegaRAP1 d3 were measured for each LRP2 CR89 mutant by solid-phase assay.

[6] = target: T10, LRP2 CR89 R1088D (human, UniProt P98164 1022-1105); assay: as above
T10 construct: also called YVWD
Method: as §4, §5

[7] = target: T1, LRP2 CR89 V1047D R1088D; assay: as above
Method: as §4, §5

[8] = target: T2, LRP2 CR89 V1047D; assay: as above
Method: as §4, §5

[9] = target: T3, LRP2 CR89 Y1042W; assay: as above
Method: as §4, §5

[10] = target: T4, LRP2 CR89 Y1042W R1088D; assay: as above
Method: as §4, §5

[11] = target: T5, LRP2 CR89 Y1042W V1047D R1088D; assay: as above
Method: as §4, §5

[12] = target: T7, LRP1 CR3-5; assay: as above; remark: listed apart in the source
Method: as §4

[13] = target: B1; assay: solid-phase binding assay, ligand at 80 nM, CR protein coated (FIG. 7)
Method: as §4
The apparent dissociation constant for binding of VRAP1 d3 to VLDLR CR78 was determined to be 44±9 nM. […]

[14] = target: T6, LRP2 CR89 Y1042W V1047D; assay: solid-phase binding assay, CR protein coated, anti-RAP detection
Method: as §4, §5

T7 sequence (Q07954 852-973, form in doubt): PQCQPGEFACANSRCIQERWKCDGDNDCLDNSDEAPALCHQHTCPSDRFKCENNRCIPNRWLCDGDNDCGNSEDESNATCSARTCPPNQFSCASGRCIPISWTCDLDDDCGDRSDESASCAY
T9 sequence (P98164 1025-1102): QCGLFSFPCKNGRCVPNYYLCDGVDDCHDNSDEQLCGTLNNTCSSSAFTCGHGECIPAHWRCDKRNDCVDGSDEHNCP

Kd [1] [nM] | Kd [2] [nM] | % max [3] [%] | Kd [3] [nM] | % max [4] [%] | % max bind [5] [%] | % max bind [6] [%] | % max bind [7] [%] | % max bind [8] [%] | % max bind [9] [%] | % max bind [10] [%] | % max bind [11] [%] | Kd [12] [nM] | binding result [13] | binding result [7] | binding result [8] | binding result [9] | binding result [14] | binding result [10] | binding result [11] | Binder
11 | > 300 | 76 | 16 | 5 | 7 | 7 | 6 | 6 | 9 | 16 | 15 | 16 |  |  |  |  |  |  |  | B1
 |  |  |  |  |  |  |  |  |  |  |  |  | no binding (tested: 80 nM) |  |  |  |  |  |  | MAT CR12 (other, also called ST14 CR12; not shown: N-terminal hexahistidine/S-peptide tag of pET30(+)a) PCPGQFTCRTGRCIRKELRCDGWADCTDHSDELNCSCDAGHQFTCKNKFCKPLFWVCDSVNDCGDNSDEQGCS
 |  |  |  |  |  |  |  |  | 5 |  |  |  |  | no binding | no binding | no binding | no binding | no binding | no binding | MegaRAP1 d3 (ligand, not shown: small tags and cut ends, also called RAPv2A d3; RAP v2) LDRLRRVSHQGYTTEAKFEEPRVIDLWDLAQSANLTDKELEAFREELKYFKAKIEAHNHYQKQLEIAHEELRHAESVGDGERVSRSREKHALLEGRTKELGYTVKKHLQDLSGRISRAR
